For experiment [1], the target named is T1, recombinant Motavizumab human IgE (rMota-hIgE) (human, UniProt P01854 1-428).
T1 construct: also called Recombinant IgE (argenx)
The experiment in a line: hIgE binding ELISA. In general terms: In an ELISA, binding on a coated surface is turned into a signal by an enzyme label.
Procedure: The ratio of OD450 measured at pH 7.4 versus OD450 measured at pH 6 was calculated for each of the CL-2C antibodies.

Experiment [2] deals with T1, recombinant Motavizumab human IgE …. Kind of experiment: hIgE binding ELISA. This is another data set of the same source.
Procedure: (§1) Briefly a Maxisorp plate was coated with recombinant human respiratory syncytial virus protein F (RSV-F) (0.5 μg/mL), then blocked with PBS with 3% BSA and 0.05% Tween. […] After several washing steps at pH 7.4 or pH 5.5, detection of the bound mAbs was carried out with an anti-human Fc-HRP antibody.
In experiment [3] the target is T2, human immunoglobulin E (hIgE) (human, UniProt P01854-1 1-428).
T2 construct: also called human IgE; Native IgE (Abcam)
T2 sequence (P01854 whole entry): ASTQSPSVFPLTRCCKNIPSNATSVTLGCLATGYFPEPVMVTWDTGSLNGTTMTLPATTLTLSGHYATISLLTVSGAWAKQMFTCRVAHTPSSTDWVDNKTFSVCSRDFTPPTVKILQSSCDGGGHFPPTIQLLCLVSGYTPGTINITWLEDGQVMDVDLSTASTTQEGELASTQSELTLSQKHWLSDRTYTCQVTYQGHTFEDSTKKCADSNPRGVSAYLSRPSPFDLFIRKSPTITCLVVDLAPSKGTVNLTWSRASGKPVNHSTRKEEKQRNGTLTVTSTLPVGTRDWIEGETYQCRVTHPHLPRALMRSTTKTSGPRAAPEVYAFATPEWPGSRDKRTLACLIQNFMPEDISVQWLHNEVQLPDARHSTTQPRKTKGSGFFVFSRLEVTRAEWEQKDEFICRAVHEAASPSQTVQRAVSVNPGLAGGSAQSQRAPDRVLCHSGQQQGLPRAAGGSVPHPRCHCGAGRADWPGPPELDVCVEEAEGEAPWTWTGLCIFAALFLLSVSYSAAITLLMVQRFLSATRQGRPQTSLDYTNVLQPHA
Kind of experiment: SPR (Biacore) on hIgE.
Procedure: The ratio of KD measured at pH 5.5 versus KD measured at pH 7.4 was calculated for each of the CL-2C antibodies.

For experiment [4], the target named is T1, recombinant Motavizumab human IgE …. Kind of experiment: hIgE binding ELISA, pH 5.5.
Procedure: as §1
Experiment [5] shares this target. The experiment in a line: hIgE binding ELISA, pH 7.4.
Procedure: as §1
For experiment [6], the target named is T2, human immunoglobulin E (hIgE). Kind of experiment: competition ELISA, hIgE to hFcεRIα.

We go through one molecule from patent publication US20220177604A1 (ARGENX, published 2022).

T1 sequence (P01854 other isoform, or with tags, fused parts or gaps limits assumed, form in doubt): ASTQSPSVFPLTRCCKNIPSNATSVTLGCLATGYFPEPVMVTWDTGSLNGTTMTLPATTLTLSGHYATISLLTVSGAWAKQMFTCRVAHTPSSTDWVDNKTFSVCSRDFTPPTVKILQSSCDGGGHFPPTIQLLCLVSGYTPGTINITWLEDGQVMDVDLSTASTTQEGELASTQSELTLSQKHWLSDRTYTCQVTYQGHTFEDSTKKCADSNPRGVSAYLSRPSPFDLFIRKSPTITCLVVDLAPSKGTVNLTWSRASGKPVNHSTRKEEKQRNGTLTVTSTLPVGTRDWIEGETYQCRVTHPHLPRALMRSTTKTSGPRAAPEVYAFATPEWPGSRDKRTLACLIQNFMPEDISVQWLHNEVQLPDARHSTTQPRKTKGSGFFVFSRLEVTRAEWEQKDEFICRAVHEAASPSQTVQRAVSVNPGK

B1: CL-2C mAb 37 (antibody, V domains shown)
VH: QVQLVQSGAEVMKPGSSVKVSCKASGYTFSWYHLEWVRQAPGHGLEWMGEIDPGTFTTNYNEKFKARVTFTADTSTSTAYMELSSLRSEDTAVYYCARFSHFSGSNHDYFDYWGQGTLVTVSS
VL: EIVMTQSPATLSVSPGERATLSCRASQSIGTNIHWYQQKPGQAPRLLIYYASESISGIPARFSGSGSGTEFTLTISSLQSEDFAVYYCQQSWSWPTTFGGGTKVEIK
notes: also called VKWT + VH33H100CH
Regarding B1, the “Ratio OD450 pH 7.4/pH 6” value in experiment [1] came out at 10.3. Besides, in experiment [2], the “Ratio EC50 pH 5.5/7.4” value turned out to be 2.5 and the “Ratio EC50 pH 7.4/5.5” value came to 0.4. In experiment [3], the “KD Ratio pH 5.5/pH 7.4” value is 11.1. Also, in experiment [4], the EC50 – broadly, the concentration needed to bring the measured effect to its halfway point – was 0.0373 µg/mL. The EC50 in experiment [5] came to 0.0149 µg/mL. Further, in experiment [6], the IC50 (usually the point on the concentration scale where inhibition reaches its midpoint) was 0.483 nM.
